Measurements from patent publication US6759384 (AVENTIS PHARMACEUTICALS, dated 2004).
Non-standard residues stand in square brackets, D forms with d. No end group written: not given here. *: point of attachment. (pOH)C6H4‑OCH(CH3)CO = N-terminal acyl cap: 4-hydroxyphenyl-O-CH(CH3)-C(=O)- (2-(4-hydroxyphenoxy)propionyl), CC(Oc1ccc(O)cc1)C(=O)*; (pOH)C6H4‑CH2CHOH‑CO = N-terminal acyl cap: 4-hydroxyphenyl-CH2-CH(OH)-C(=O)- (4-hydroxyphenyllactyl); For = O=C*

Biological target: human factor Xa (Enzyme Research Laboratories, Inc.) (human, UniProt P00742 41-179; P00742 235-488, limits assumed)
Assay: chromogenic FXa inhibition
How it was run: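 Human FXa (0.5 nM) preincubated 10 min with inhibitor in TBS-P (pH 7.8, 200 mM NaCl, PEG-8000), then S-2765 added (140 μM). Initial hydrolysis rate read at 405 nm, 25° C.; IC50 by linear regression of relative rate vs log concentration.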

Chain of human factor Xa (Enzyme Research Laboratories, Inc.) (P00742 41-179 limits assumed, chain 1 of 2): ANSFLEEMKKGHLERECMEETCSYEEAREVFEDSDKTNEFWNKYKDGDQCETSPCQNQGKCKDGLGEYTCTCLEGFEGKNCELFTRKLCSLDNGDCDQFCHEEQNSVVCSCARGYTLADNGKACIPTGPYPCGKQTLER
Chain of human factor Xa (Enzyme Research Laboratories, Inc.) (P00742 235-488 limits assumed, chain 2 of 2): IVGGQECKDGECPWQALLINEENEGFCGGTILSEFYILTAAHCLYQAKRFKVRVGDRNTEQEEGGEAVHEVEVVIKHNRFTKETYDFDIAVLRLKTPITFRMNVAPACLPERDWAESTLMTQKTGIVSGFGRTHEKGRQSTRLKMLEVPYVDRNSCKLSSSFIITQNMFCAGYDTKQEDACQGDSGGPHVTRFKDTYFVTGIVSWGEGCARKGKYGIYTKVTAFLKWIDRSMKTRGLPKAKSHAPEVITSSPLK

Row | Binder | Ki [µM]
1 | IHLWYIRLP-NH2 [I-H-L-W-Y-I-R-L-P-NH2] | < 100
2 | NGYIRLIH-NH2 [N-G-Y-I-R-L-I-H-NH2] | < 100
3 | {4‑MeO‑C6H4‑CO}-IRLA-NH2 [4-MeO-C6H4-CO-I-R-L-A-NH2] | < 100
4 | GYIRD-NH2 [G-Y-I-R-D-NH2] | < 100
5 | GYIRS-NH2 [G-Y-I-R-S-NH2] | < 100
6 | GYIRY-NH2 [G-Y-I-R-Y-NH2] | < 100
7 | GYIRF-NH2 [G-Y-I-R-F-NH2] | < 100
8 | GYIRV-NH2 [G-Y-I-R-V-NH2] | < 100
9 | GYIRW-NH2 [G-Y-I-R-W-NH2] | < 100
10 | IHLW[dY]IRLP-NH2 (N-terminus assumed; SMILES CC[C@H](C)[C@H](N)C(=O)N[C@@H](Cc1c[nH]cn1)C(=O)N[C@@H](CC(C)C)C(=O)N[C@@H](Cc1c[nH]c2ccccc12)C(=O)N[C@H](Cc1ccc(O)cc1)C(=O)N[C@H](C(=O)N[C@@H](CCCNC(=N)N)C(=O)N[C@@H](CC(C)C)C(=O)N1CCC[C@H]1C(N)=O)[C@@H](C)CC) [I-H-L-W-y-I-R-L-P-NH2] | < 100
11 | GGYIRG-NH2 [G-G-Y-I-R-G-NH2] | < 100
12 | {(pOH)C6H4‑CH2CH2CO}-IRLA-NH2 [(pOH)C6H4-CH2CH2CO-I-R-L-A-NH2] | < 100
13 | {(pOH)C6H4‑CH2CHOH‑CO}-IRLP-NH2 [(pOH)C6H4-CH2CHOH-CO-I-R-L-P-NH2] | < 100
14 | {(pOH)C6H4‑OCH2CO}-IRLP-NH2 [(pOH)C6H4-OCH2CO-I-R-L-P-NH2] | < 100
15 | {(pOH)C6H4‑OCH(CH3)CO}-IRLP-NH2 (SMILES CC[C@H](C)[C@H](NC(=O)C(C)Oc1ccc(O)cc1)C(=O)N[C@@H](CCCNC(=N)N)C(=O)N[C@@H](CC(C)C)C(=O)N1CCC[C@H]1C(N)=O) [(pOH)C6H4-OCH(CH3)CO-I-R-L-P-NH2] | < 100
16 | IRLP (N-term (pOH)C6H4-CH2CH2CO; C-term NH2) [(pOH)C6H4-CH2CH2CO-I-R-L-P-NH2] | < 100
17 | {Ph‑CH2CH2CO}-IRLA-NH2 [Ph-CH2CH2CO-I-R-L-A-NH2] | < 100
18 | GYIRLPAM-NH2 [G-Y-I-R-L-P-A-M-NH2] | < 100
19 | GYIRLPSQ-NH2 [G-Y-I-R-L-P-S-Q-NH2] | < 100
20 | GYIRLPQT-NH2 [G-Y-I-R-L-P-Q-T-NH2] | < 100
21 | For-YIRLP-NH2 [For-Y-I-R-L-P-NH2] | < 100
22 | IQLGYIRLP-NH2 [I-Q-L-G-Y-I-R-L-P-NH2] | < 100
23 | SYIRLP-NH2 [S-Y-I-R-L-P-NH2] | < 100
24 | {Ph‑CH═CH‑CO}-IRLA-NH2 [Ph-CH═CH-CO-I-R-L-A-NH2] | < 100
25 | {Ph‑CH2CH2CH2‑CO}-IRLA-NH2 [Ph-CH2CH2CH2-CO-I-R-L-A-NH2] | < 100
26 | GYIRLPPV-NH2 [G-Y-I-R-L-P-P-V-NH2] | < 100
